From US12404607

Columns and labels:
Experiment in all cases: ELISA, antigen coated at 2 ug/mL
[1] = molecular target: CoV-2 RBD (N354D) (SARS-CoV-2) (UniProt P0DTC2)
[2] = molecular target: CoV-2 S (R683A, R685A) (SARS-CoV-2) (UniProt P0DTC2)
[3] = molecular target: CoV-2 RBD (W436R) (SARS-CoV-2) (UniProt P0DTC2)
[4] = molecular target: CoV-2 S (D614G) (SARS-CoV-2) (UniProt P0DTC2)
[5] = molecular target: CoV-2 RBD (V367F) (SARS-CoV-2) (UniProt P0DTC2)
[6] = molecular target: CoV-2 RBD (N354D, D364Y) (SARS-CoV-2) (UniProt P0DTC2)

Substance	EC50 [1] [µg/mL]	EC50 [2] [µg/mL]	EC50 [3] [µg/mL]	EC50 [4] [µg/mL]	EC50 [5] [µg/mL]	EC50 [6] [µg/mL]
SARS CoV-2 mAb [SAD-S35] (Acro Biosystems) (antibody)	0.04	0.05	0.04	0.03	0.04	0.05
rCIG (recombinant coronavirus-2 immune globulin; recombinant anti-coronavirus 19 hyperimmune gammaglobulin)	0.07	0.09	0.07	0.05	0.07	0.08
